Source: patent US20240124575A1
Where two headings read alike, the source gives them in different places. Each block holds one substance with its values, some of them ahead of it.

Tests used:
[1] = molecular target: human CD33-His (extracellular domain Asp 18-His 259) (human) (UniProt P20138); assay: ELISA, antigen coated
[2] = molecular target: human CD33-His (extracellular domain Asp 18-His 259) (human) (UniProt P20138); assay: ELISA, antigen coated; remark: listed apart in the source
[3] = molecular target: human CD33 on U937 cells (endogenous) (human) (UniProt P20138); assay: FACS, U937 cells
[4] = molecular target: human CD33 on CHO-K1 cells (CHO-K1-human CD33) (human) (UniProt P20138); assay: FACS, CHO-K1-human CD33 cells
[5] = molecular target: human CD33-C2-his (human) (UniProt P20138); assay: ELISA, antigen coated
human CD33-V-his (human) = human CD33-V-his (human) (UniProt P20138); assay: ELISA, antigen coated
[6] = molecular target: human CD33-His (extracellular domain Asp 18-His 259) (human) (UniProt P20138); assay: ELISA, antigen coated; remark: listed apart in the source
[7] = molecular target: murine CD33-His protein (murine) (UniProt Q63994); assay: ELISA, antigen coated
[8] = molecular target: human CD33 on CHO-K1 cells (CHO-K1-human CD33) (human) (UniProt P20138); assay: FACS, CHO-K1-human CD33 cells; remark: listed apart in the source
[9] = molecular target: human CD33 on U937 cells (endogenous) (human) (UniProt P20138); assay: FACS, U937 cells; remark: listed apart in the source
[10] = molecular target: human CD33-his protein (human) (UniProt P20138); assay: competition ELISA, coated human CD33-his, vs Biotin-C33B904 at EC80; antibody 3.91 nM
[11] = molecular target: human CD33-his protein (human) (UniProt P20138); assay: competition ELISA, coated human CD33-his, vs Biotin-C33B904 at EC80; antibody 125.00 nM
[12] = molecular target: human CD33-his protein (human) (UniProt P20138); assay: competition ELISA, coated human CD33-his, vs Biotin-C33B904 at EC80; antibody 3.91 nM; remark: listed apart in the source
[13] = molecular target: human CD33-his protein (human) (UniProt P20138); assay: competition ELISA, coated human CD33-his, vs Biotin-C33B904 at EC80; antibody 0.49 nM
[14] = molecular target: human CD33-his protein (human) (UniProt P20138); assay: competition ELISA, coated human CD33-his, vs Biotin-C33B904 at EC80; antibody 31.25 nM
[15] = molecular target: human CD33-his protein (human) (UniProt P20138); assay: competition ELISA, coated human CD33-his, vs Biotin-C33B904 at EC80; antibody 1.95 nM
[16] = molecular target: human CD33-his protein (human) (UniProt P20138); assay: competition ELISA, coated human CD33-his, vs Biotin-C33B904 at EC80; antibody 15.63 nM
[17] = molecular target: human CD33-his protein (human) (UniProt P20138); assay: competition ELISA, coated human CD33-his, vs Biotin-C33B904 at EC80; antibody 500 nM
[18] = molecular target: human CD33-his protein (human) (UniProt P20138); assay: competition ELISA, coated human CD33-his, vs Biotin-C33B904 at EC80; antibody 62.50 nM
[19] = molecular target: human CD33-his protein (human) (UniProt P20138); assay: competition ELISA, coated human CD33-his, vs Biotin-C33B904 at EC80; antibody 1.95 nM; remark: listed apart in the source
[20] = molecular target: human CD33-his protein (human) (UniProt P20138); assay: competition ELISA, coated human CD33-his, vs Biotin-C33B904 at EC80; antibody 0.98 nM
[21] = molecular target: human CD33-his protein (human) (UniProt P20138); assay: competition ELISA, coated human CD33-his, vs Biotin-C33B904 at EC80; antibody 125.00 nM; remark: listed apart in the source
[22] = molecular target: human CD33-his protein (human) (UniProt P20138); assay: competition ELISA, coated human CD33-his, vs Biotin-C33B904 at EC80; antibody 31.25 nM; remark: listed apart in the source
[23] = molecular target: human CD33-his protein (human) (UniProt P20138); assay: competition ELISA, coated human CD33-his, vs Biotin-C33B904 at EC80; antibody 15.63 nM; remark: listed apart in the source
[24] = molecular target: human CD33-his protein (human) (UniProt P20138); assay: competition ELISA, coated human CD33-his, vs Biotin-C33B904 at EC80; antibody 500 nM; remark: listed apart in the source
[25] = molecular target: human CD33-his protein (human) (UniProt P20138); assay: competition ELISA, coated human CD33-his, vs Biotin-C33B904 at EC80; antibody 0 nM (no competitor)
[26] = molecular target: human CD33-his protein (human) (UniProt P20138); assay: competition ELISA, coated human CD33-his, vs Biotin-C33B904 at EC80; antibody 0.98 nM; remark: listed apart in the source
[27] = molecular target: human CD33-his protein (human) (UniProt P20138); assay: competition ELISA, coated human CD33-his, vs Biotin-C33B904 at EC80; antibody 62.50 nM; remark: listed apart in the source
[28] = molecular target: human CD33-his protein (human) (UniProt P20138); assay: competition ELISA, coated human CD33-his, vs Biotin-C33B904 at EC80; antibody 0.49 nM; remark: listed apart in the source
[29] = molecular target: human CD33-his protein (human) (UniProt P20138); assay: competition ELISA, coated human CD33-his, vs Biotin-C33B904 at EC80; antibody 0 nM (no competitor); remark: listed apart in the source
[30] = molecular target: human CD33-his protein (human) (UniProt P20138); assay: competition ELISA, coated human CD33-his, vs Biotin-C33B904 at EC80; antibody 250.00 nM
[31] = molecular target: human CD33-his protein (human) (UniProt P20138); assay: as above; remark: listed apart in the source
[32] = molecular target: human CD33-his protein (human) (UniProt P20138); assay: competition ELISA, coated human CD33-his, vs Biotin-C33B904 at EC80; antibody 7.81 nM
[33] = molecular target: human CD33-his protein (human) (UniProt P20138); assay: as above; remark: listed apart in the source

human CD33-His (extracellular domain Asp 18-His 259) (human), sequence (P20138 18-259 limits assumed): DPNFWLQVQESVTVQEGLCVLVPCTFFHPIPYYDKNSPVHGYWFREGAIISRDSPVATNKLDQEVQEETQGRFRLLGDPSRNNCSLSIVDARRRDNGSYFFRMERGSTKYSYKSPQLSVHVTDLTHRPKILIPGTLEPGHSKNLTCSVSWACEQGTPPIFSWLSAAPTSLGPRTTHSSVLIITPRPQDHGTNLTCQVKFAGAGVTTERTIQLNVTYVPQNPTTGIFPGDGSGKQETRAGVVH
human CD33-his protein (human), sequence (P20138 18-259 limits assumed): as above
human CD33-C2-his (human), sequence (P20138 other isoform, or with tags, fused parts or gaps limits assumed): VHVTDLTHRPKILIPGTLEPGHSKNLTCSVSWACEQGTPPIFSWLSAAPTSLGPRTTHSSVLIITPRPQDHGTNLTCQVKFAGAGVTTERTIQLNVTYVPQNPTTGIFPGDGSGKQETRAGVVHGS
murine CD33-His protein (murine), sequence (Q63994 18-240 limits assumed): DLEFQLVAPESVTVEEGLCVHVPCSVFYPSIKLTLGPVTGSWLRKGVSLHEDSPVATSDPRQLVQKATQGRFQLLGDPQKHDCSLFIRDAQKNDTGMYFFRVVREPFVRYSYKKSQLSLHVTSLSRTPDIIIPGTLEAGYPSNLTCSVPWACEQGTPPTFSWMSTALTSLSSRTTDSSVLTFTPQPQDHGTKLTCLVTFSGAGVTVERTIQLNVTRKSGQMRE
human CD33-V-his (human), sequence (P20138 other isoform, or with tags, fused parts or gaps limits assumed): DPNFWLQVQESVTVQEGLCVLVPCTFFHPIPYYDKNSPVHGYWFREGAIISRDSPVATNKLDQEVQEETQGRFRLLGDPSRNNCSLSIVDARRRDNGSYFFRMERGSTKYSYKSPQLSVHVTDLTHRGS
human CD33 on U937 cells (endogenous) (human), sequence (P20138 18-364): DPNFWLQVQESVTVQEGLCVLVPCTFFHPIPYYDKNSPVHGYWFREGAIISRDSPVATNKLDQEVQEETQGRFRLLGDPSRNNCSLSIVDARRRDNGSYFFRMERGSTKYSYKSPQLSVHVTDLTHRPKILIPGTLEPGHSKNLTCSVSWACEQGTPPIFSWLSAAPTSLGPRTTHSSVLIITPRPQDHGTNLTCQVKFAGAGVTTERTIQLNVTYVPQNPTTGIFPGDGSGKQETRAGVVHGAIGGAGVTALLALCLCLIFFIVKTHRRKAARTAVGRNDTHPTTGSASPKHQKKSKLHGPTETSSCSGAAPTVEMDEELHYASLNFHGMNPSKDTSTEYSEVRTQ
human CD33 on CHO-K1 cells (CHO-K1-human CD33) (human), sequence (P20138 18-364): as above

OD450 at 0.0001 nM [1]: 0.05 OD450
OD450 at 0.001 nM [1]: 0.06 OD450
OD450 at 0.01 nM [1]: 0.06 OD450
OD450 at 0.1 nM [1]: 0.05 OD450
OD450 at 1 nM [1]: 0.05 OD450
OD450 at 10 nM [1]: 0.05 OD450
OD450 at 100 nM [1]: 0.05 OD450
OD450 at 0.0001 nM [2]: 0.04 OD450
OD450 at 0.001 nM [2]: 0.04 OD450
OD450 at 0.01 nM [2]: 0.04 OD450
OD450 at 0.1 nM [2]: 0.03 OD450
OD450 at 1 nM [2]: 0.03 OD450
OD450 at 10 nM [2]: 0.04 OD450
OD450 at 100 nM [2]: 0.06 OD450
Max MFI [3]: 84 MFI
Max MFI [4]: 389 MFI
OD450 at 0.0001 nM [5]: 0.26 OD450
OD450 at 0.001 nM [5]: 0.25 OD450
OD450 at 0.01 nM [5]: 0.24 OD450
OD450 at 0.1 nM [5]: 0.27 OD450
OD450 at 1 nM [5]: 0.23 OD450
OD450 at 10 nM [5]: 0.24 OD450
OD450 at 100 nM [5]: 0.3 OD450
OD450 at 0.0001 nM (human CD33-V-his (human)): 0.23 OD450
OD450 at 0.001 nM (human CD33-V-his (human)): 0.33 OD450
OD450 at 0.01 nM (human CD33-V-his (human)): 0.2 OD450
OD450 at 0.1 nM (human CD33-V-his (human)): 0.23 OD450
OD450 at 1 nM (human CD33-V-his (human)): 0.22 OD450
OD450 at 10 nM (human CD33-V-his (human)): 0.22 OD450
OD450 at 100 nM (human CD33-V-his (human)): 0.31 OD450
OD450 at 0.0001 nM [6]: 0.06 OD450
OD450 at 0.01 nM [6]: 0.05 OD450
OD450 at 0.1 nM [6]: 0.06 OD450
OD450 at 1 nM [6]: 0.06 OD450
OD450 at 10 nM [6]: 0.08 OD450
OD450 at 100 nM [6]: 0.1 OD450
OD450 at 0.0001 nM [7]: 0.05 OD450
OD450 at 0.001 nM [7]: 0.06 OD450
OD450 at 0.01 nM [7]: 0.06 OD450
OD450 at 0.1 nM [7]: 0.06 OD450
OD450 at 1 nM [7]: 0.06 OD450
OD450 at 10 nM [7]: 0.06 OD450
OD450 at 100 nM [7]: 0.06 OD450
Max MFI [8]: 140 MFI
Max MFI [9]: 162 MFI
Substance: anti-hel-hIgG1 antibody against hen egg lysozyme

OD450 (Biotin-C33B904 signal) [10]: 2.19
OD450 (Biotin-C33B904 signal) [11]: 2.17
OD450 (Biotin-C33B904 signal) [12]: 2.3
OD450 (Biotin-C33B904 signal) [13]: 2.13
OD450 (Biotin-C33B904 signal) [14]: 2.21
OD450 (Biotin-C33B904 signal) [15]: 2.21
OD450 (Biotin-C33B904 signal) [16]: 2.35
OD450 (Biotin-C33B904 signal) [17]: 2.34
OD450 (Biotin-C33B904 signal) [18]: 2.35
OD450 (Biotin-C33B904 signal) [19]: 2.3
OD450 (Biotin-C33B904 signal) [20]: 2.08
OD450 (Biotin-C33B904 signal) [21]: 2.34
OD450 (Biotin-C33B904 signal) [22]: 2.38
OD450 (Biotin-C33B904 signal) [23]: 2.3
OD450 (Biotin-C33B904 signal) [24]: 2.46
OD450 (Biotin-C33B904 signal) [25]: 2.24
OD450 (Biotin-C33B904 signal) [26]: 2.27
OD450 (Biotin-C33B904 signal) [27]: 2.17
OD450 (Biotin-C33B904 signal) [28]: 2.22
OD450 (Biotin-C33B904 signal) [29]: 2.26
OD450 (Biotin-C33B904 signal) [30]: 2.35
OD450 (Biotin-C33B904 signal) [31]: 2.16
OD450 (Biotin-C33B904 signal) [32]: 2.17
OD450 (Biotin-C33B904 signal) [33]: 2.33
Substance: hIgG1 (anti-hel-hIgG1 antibody against hen egg lysozyme)
